Consider 4 molecules from patent publication US20170355757A1 (Regeneron, published 2017).

T1: monkey C5-mmh (monkey, UniProt P01031 19-1676 (human entry), limits assumed)
T1 construct: recombinant, with C-terminal myc-myc-hexahistidine tag
T1 chain: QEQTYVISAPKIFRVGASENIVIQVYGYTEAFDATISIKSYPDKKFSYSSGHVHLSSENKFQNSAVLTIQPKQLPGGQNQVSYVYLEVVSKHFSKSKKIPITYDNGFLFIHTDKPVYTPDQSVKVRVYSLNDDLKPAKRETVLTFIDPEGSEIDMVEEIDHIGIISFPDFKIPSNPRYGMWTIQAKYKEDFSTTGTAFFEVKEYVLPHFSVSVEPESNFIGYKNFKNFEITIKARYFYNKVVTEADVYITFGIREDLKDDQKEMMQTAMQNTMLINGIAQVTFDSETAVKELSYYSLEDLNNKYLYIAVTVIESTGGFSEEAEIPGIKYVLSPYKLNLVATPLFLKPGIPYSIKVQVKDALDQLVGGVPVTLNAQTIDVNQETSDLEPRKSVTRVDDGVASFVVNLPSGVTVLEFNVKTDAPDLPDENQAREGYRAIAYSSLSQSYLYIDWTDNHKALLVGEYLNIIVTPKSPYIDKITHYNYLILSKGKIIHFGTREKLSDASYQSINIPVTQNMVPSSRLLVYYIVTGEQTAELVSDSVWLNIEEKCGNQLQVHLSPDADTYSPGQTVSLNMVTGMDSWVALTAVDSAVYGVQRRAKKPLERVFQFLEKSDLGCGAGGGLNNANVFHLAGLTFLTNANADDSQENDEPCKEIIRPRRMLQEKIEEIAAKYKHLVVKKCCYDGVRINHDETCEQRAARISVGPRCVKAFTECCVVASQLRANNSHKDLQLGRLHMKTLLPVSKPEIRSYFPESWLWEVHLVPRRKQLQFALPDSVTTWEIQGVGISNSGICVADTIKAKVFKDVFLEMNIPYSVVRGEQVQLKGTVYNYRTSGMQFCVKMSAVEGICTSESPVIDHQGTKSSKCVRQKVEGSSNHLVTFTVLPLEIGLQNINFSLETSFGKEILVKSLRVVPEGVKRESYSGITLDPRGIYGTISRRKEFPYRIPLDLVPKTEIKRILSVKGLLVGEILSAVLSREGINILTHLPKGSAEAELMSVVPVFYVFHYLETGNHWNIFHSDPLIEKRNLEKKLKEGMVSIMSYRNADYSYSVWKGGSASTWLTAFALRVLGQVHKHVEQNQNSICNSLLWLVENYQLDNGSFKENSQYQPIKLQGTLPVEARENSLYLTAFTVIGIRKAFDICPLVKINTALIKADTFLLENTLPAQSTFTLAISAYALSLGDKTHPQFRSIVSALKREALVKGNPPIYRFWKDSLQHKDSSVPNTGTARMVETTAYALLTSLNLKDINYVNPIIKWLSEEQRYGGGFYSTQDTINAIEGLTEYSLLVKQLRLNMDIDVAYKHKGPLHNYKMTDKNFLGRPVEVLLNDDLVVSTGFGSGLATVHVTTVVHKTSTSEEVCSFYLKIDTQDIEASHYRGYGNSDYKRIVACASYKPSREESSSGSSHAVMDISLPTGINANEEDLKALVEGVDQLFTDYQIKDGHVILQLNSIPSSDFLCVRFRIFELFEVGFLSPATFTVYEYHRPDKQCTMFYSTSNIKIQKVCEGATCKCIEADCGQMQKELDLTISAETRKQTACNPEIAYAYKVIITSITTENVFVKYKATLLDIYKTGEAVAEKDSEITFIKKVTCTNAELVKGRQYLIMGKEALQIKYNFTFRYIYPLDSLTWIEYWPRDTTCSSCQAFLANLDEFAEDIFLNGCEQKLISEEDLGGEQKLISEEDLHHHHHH

B1: H4H12167P (antibody, human IgG4, V domains shown)
VH: QVQLVESGGGLVKPGGSLRLSCAASGFTFSDSYMSWIRQAPGKGLEWISYIGSSGNTFYYADSVKGRFTISRDNANNLLYLQMTSLRAEDTAVYYCAREEGDFWSAVDSWGQGTLVTVSS
VL: DIQLTQSPSFLSASVGDRVTITCWASQGISSYLAWYQQKPGKAPKLLIHTASTLQSGVPSRFSGSGSGTEFTLTISNLQPEDFATYYCQQLNSYPFTFGPGTKVDIK
notes: H4H: human IgG4 Fc with S108P hinge mutation
B2: H4H12168P (antibody, human IgG4, V domains shown)
VH: QVQLVESGGGVVQPGGSLRLSCAASGFTFGGHAMHWVRQAPGKGLEWLAVISSDGSNKQYADSVKGRFTISRDNPKNTLYLQMNSLRVGDTAIYYCAKEVAPRYYYYGLDVWGQGTTVTVSS
VL: DIQMTQSPSSLSASVGDRVTITCRASQDISNFLAWYQQKPGKVPKLLIYTASTLQSGVPSRFSGSGSGTDFTLTVSSLQPEDVATYYCQKYAGALTFGPGTKVDIK
notes: as for B1
B3: H4H11686N (antibody, human IgG4, V domains shown)
VH: QVQLVESGGGLVKPGGSLRLSCAASGFTFSDYYMSWIRQAPGKGLEWVSYISSSGNTIKYADSMKGRFTISRDNAKKSLFVEMNSLRAEDTAVYYCARYKSSSDYFDHWGQGTLVTVSS
VL: EIVLTQSPATLSLSPGERATLSCRASQSVRSYLAWYQQKPGQAPRLLIYDASNRATAIPARFSGSGSGTDFTLTISSLEPEDLAVYYCQQSGNWPLTFGGGTKVEIK
notes: tested with H4H prefix (human IgG4 Fc with S108P hinge mutation); also called H2M11686N
B4: H4H12163P (antibody, human IgG4, V domains shown)
VH: EVQLVESGGDLVQPGGSLRLSCAASGFTFSSYAMNWVRQGPGKGLEWVSAISGRGDSTYYADSVKGRLTISRDNSKNTLYLQMNSLRAEDTAVYYCVKEGEQLVYWYFDLWGRGTLVTVSS
VL: DIQMTQSPSSLSASVGDRVTITCRASQTISNFLHWYQQKPGKAPKLLIYAASSLQSGVPSRFSGSGSGTDFTLTISSLQPEDFSTYFCQQSYTTPLTFGGGTKVEIK
notes: as for B1

In the first assay the target is T2, human C5 (human, UniProt P01031 19-1676). The assay is described as follows: cell-based or functional assay.
Consider B1, for which the “Human AP % Max Inhibition, hemolysis assay, NHS” value was found to be 64.8%; the “Human AP IC50, hemolysis assay, NHS” value worked out at 15.5 nM; the “Human CP % Max Inhibition, hemolysis assay, NHS” value was determined as 99.9%; the “Human CP IC50, hemolysis assay, NHS” value worked out at 3.68 nM.
The like results for B2 were, in that order, 66.2%, 28.5 nM, 97.5% and 3.33 nM.
Take B3: the “Human AP % Max Inhibition, hemolysis assay, NHS” value is 76.2%; the “Human AP IC50, hemolysis assay, NHS” value was determined as 13 nM; the “Human CP % Max Inhibition, hemolysis assay, NHS” value amounted to 97.4%; the “Human CP IC50, hemolysis assay, NHS” value was determined as 3.09 nM.
The like results for B4 were, in that order, 66%, 20.5 nM, 96.1% and 2.72 nM.

In a further assay the target is T2, human C5. Put plainly: SPR (Biacore), mAb captured, dissociation of human C5 at pH7.4 vs pH6.0, 37°C. As to the method:
Effect of pH on the rate of dissociation of recombinant human C5 bound to purified anti-C5 monoclonal antibodies was determined using a real-time surface plasmon resonance biosensor using a Biacore T200 instrument. The Biacore sensor surface was first derivatized by amine coupling with a monoclonal mouse anti-human Fc antibody (GE, # BR-1008-39) to capture anti-C5 monoclonal antibodies expressed with human IgG4 Fc. All Biacore binding studies were performed using two running buffers PBS-T, pH7.4 (0.01M Na₂HPO₄/NaH₂PO₄, 0.15M NaCl, 0.05% v/v Tween-20, adjusted to pH7.4) and PBS-T, pH6.0 (0.01M Na₂HPO₄/NaH₂PO₄, 0.15M NaCl, 0.05% v/v Tween-20, adjusted to pH6.0). […] Binding dissociative half-lives (t %) were calculated from kd as: […]
As for B1, the “t½ Ratio pH7.4/pH6.0” value stood at 0.2.
On the same count and under the same terms, the figure for B2 is 1.
Turning to B3, the “t½ Ratio pH7.4/pH6.0” value was 0.8.
Still for that read-out and setting: the figure for B4 is 0.8.

The next assay concerns the target Cynomolgus monkey C5 (cynomolgus monkey, UniProt A0A2K5U1T1 19-1676). The assay is described as follows: cell-based or functional assay.
Turning to B1, the “Cyno AP % Max Inhibition, hemolysis assay, 5% serum” value (shortened to “Cyno AP % Max Inhibition”) amounted to 98.3%; the “Cyno CP % Max Inhibition, hemolysis assay, 5% serum” value (“Cyno CP % Max Inhibition” below) turned out to be 100%; the “Cyno Serum AP IC50, hemolysis assay, 5% serum” value (from here on “Cyno Serum AP IC50 … 5% serum”) is 7.6 nM; the “Cyno Serum CP IC50, hemolysis assay, 5% serum” value (from here on “Cyno Serum CP IC50 … 5% serum”) came out at 21.3 nM.
As to B2, the “Cyno AP % Max Inhibition” value is 99.7%; the “Cyno CP % Max Inhibition” value was found to be 99%; the “Cyno Serum AP IC50 … 5% serum” value worked out at 5.45 nM; the “Cyno Serum CP IC50 … 5% serum” value is 10.3 nM.
B3: the “Cyno AP % Max Inhibition” value amounted to 98.7%; the “Cyno CP % Max Inhibition” value is 94.5%; the “Cyno Serum AP IC50 … 5% serum” value is 9 nM; the “Cyno Serum CP IC50 … 5% serum” value was determined as 14.1 nM.
On the same counts, the results for B4 are 98.5%, 96.4%, 10.2 nM and 16.5 nM.

Another assay concerns the target human C5 R885H-mmh (human, UniProt P01031 19-1676). Put plainly: cell-based or functional assay.
Take B1: the “IC50, inhibition of CDC of Daudi cells, C5 depleted human serum and 6.6 nM C5 Variant R885H” value stood at 1.9 nM.
The same measure, in the same setting: to B2 belongs 2.3 nM.
With B3, the “IC50, inhibition of CDC of Daudi cells, C5 depleted human serum and 6.6 nM C5 Variant R885H” value stood at 1.1 nM.
The same measure, in the same setting: to B4 belongs 2.1 nM.

Another assay deals with T3, African green monkey C5 (African green monkey). Put plainly: cell-based or functional assay.
On to B1, for which the “IC50, inhibition of CDC of Daudi cells, 1.66% African Green monkey serum” value was found to be 3.5 nM.
Same read-out and setting: the figure for B2 is 2 nM; for B3 it is 4.4 nM.
In the case of B4, the “IC50, inhibition of CDC of Daudi cells, 1.66% African Green monkey serum” value turned out to be 3.7 nM.

The next assay has as its target T2, human C5. The assay is described as follows: cell-based or functional assay. The source holds these as a separate data set.
On to B1, for which the “IC50, inhibition of CDC of Daudi cells, 1.66% human serum” value was 2.5 nM.
As to B2, the “IC50, inhibition of CDC of Daudi cells, 1.66% human serum” value worked out at 1.5 nM.
On the same count and under the same terms, the figure for B3 is 1.5 nM; for B4 it is 3.4 nM.

The target of another assay is human C5 R885C-mmh (human, UniProt P01031 19-1676). Put plainly: cell-based or functional assay.
With B1, the “IC50, inhibition of CDC of Daudi cells, C5 depleted human serum and 6.6 nM C5 Variant R885C” value was found to be 1 nM.
Same read-out and setting: to B2 belongs 0.86 nM; to B3, 0.45 nM; to B4, 1.1 nM.

Another assay has as its target T3, African green monkey C5. Put plainly: cell-based or functional assay. This is another data set of the same source.
B1: the “AGM AP % Max Inhibition, hemolysis assay, 5% serum” value worked out at 53.4%; the “AGM CP % Max Inhibition, hemolysis assay, 5% serum” value was determined as 90.5%; the “AGM Serum AP IC50, hemolysis assay, 5% serum” value stood at 69.5 nM; the “AGM Serum CP IC50, hemolysis assay, 5% serum” value came out at 69.5 nM.
Take B2: the “AGM AP % Max Inhibition, hemolysis assay, 5% serum” value is 88.2%; the “AGM CP % Max Inhibition, hemolysis assay, 5% serum” value amounted to 90.8%; the “AGM Serum AP IC50, hemolysis assay, 5% serum” value came to 22.5 nM; the “AGM Serum CP IC50, hemolysis assay, 5% serum” value came out at 28 nM.
The like results for B3 were, in that order, 50.4%, 49.3%, 163 nM and 48.2 nM.
On the same counts, the results for B4 are 58.5%, 83.2%, 216 nM and 69 nM.

Another assay addresses T1, monkey C5-mmh. Put plainly: SPR (Biacore), mAb captured, dissociation of monkey C5 at pH7.4 vs pH6.0, 37°C.
For the molecule B1, the “t½ Ratio pH7.4/pH6.0” value came to 4.4.
Still for that read-out and setting: to B2 belongs 4; to B3, 0.5; to B4, 3.3.

The target of a further assay is T1, monkey C5-mmh. The assay is described as follows: SPR (Biacore), mAb captured, dissociation of monkey C5 at pH7.4 vs pH6.0, 25°C.
With B1, the “t½ Ratio pH7.4/pH6.0” value was found to be 9.2.
On the same count and under the same terms, to B2 belongs 3.8; to B3, 0.37.
Still for that read-out and setting: the figure for B4 is 9.7.
